# Results: paper doi:10.1101/2023.11.14.567104
# Biological target: Recombinant soluble integrin αvβ3 (UniProt P06756)
# Assay: SPR
substance,measurement,value
"Heparin-binding domain (HBD, residues 111-165) of VEGF165, wild type (domain or fragment)",Kd,470 nM
